Experimental data as given in patent publication US20040209326A1.

Columns and labels:
[1] = biological target: fibrinogen binding protein encoded from pSE100 (581 aa part of protein FIG of Staphylococcus epidermidis strain HB) (Staphylococcus epidermidis strain HB) (UniProt O70022); assay: inhibition of pSE100 phage panning on fibrinogen-coated wells by the soluble ligand; phage eluted at pH 1.8
Fibronectin [2] = assay: phage panning on coated protein in microtiter wells; bound phage eluted at pH 1.8
Elastin [3] = assay: as above
α2macroglobulin [4] = assay: as above
human IgG [5] = assay: as above
[6] = biological target: Bovine serum albumin (fraction V, ria grade) (bovine) (UniProt P02769); assay: as above
Chain of UniProt P02769 (P02769 25-607 limits assumed): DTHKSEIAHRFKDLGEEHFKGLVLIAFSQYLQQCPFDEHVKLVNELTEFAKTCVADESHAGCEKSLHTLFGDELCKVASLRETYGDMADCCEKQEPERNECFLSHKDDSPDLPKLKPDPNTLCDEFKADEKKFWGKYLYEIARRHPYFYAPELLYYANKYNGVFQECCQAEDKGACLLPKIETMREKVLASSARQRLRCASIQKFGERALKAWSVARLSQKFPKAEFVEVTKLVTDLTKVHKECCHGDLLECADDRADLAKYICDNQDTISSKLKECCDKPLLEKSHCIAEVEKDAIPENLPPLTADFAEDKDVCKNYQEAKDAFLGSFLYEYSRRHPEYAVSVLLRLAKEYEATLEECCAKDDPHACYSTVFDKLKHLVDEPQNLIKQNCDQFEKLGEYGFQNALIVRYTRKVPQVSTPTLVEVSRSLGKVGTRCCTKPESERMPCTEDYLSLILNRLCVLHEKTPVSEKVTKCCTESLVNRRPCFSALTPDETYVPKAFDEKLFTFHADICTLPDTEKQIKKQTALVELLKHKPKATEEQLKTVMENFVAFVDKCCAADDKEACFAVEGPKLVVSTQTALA

Human fibrinogen (human) [7] = biological target: Human fibrinogen (human) (UniProt P02671); assay: as above
Chain of UniProt P02671 (P02671 other isoform, or with tags, fused parts or gaps limits assumed, chain 1 of 3): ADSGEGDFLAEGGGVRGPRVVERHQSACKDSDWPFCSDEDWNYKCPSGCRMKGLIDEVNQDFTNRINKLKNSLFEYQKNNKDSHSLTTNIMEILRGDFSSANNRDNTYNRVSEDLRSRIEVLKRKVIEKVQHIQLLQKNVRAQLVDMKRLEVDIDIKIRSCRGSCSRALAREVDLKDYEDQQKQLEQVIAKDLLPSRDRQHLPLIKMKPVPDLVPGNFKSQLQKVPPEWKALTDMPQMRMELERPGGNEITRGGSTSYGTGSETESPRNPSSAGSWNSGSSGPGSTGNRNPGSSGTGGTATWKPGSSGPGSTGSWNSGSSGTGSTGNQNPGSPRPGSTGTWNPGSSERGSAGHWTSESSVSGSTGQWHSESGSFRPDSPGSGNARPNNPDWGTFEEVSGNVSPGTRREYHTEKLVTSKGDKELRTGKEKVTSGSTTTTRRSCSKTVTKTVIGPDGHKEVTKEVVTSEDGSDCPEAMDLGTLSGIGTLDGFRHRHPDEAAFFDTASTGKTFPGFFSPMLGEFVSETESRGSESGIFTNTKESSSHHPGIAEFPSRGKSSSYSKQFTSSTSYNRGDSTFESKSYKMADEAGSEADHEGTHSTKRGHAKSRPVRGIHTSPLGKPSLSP
Chain of UniProt P02671 (P02675 31-491 limits assumed, chain 2 of 3, further chain): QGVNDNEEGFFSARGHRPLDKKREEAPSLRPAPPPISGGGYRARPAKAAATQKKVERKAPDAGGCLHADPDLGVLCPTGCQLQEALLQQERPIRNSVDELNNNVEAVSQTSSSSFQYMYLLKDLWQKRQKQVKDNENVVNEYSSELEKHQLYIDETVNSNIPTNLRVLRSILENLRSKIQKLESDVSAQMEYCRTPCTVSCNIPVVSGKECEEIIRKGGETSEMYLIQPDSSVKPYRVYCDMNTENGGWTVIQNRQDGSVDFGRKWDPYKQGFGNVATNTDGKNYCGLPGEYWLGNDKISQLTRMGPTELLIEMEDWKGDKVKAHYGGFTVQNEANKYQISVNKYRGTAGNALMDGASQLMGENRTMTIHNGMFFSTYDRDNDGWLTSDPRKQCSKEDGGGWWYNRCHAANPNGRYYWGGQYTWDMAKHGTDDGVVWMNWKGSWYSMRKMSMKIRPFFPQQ
Chain of UniProt P02671 (P02679 other isoform, or with tags, fused parts or gaps limits assumed, chain 3 of 3, further chain): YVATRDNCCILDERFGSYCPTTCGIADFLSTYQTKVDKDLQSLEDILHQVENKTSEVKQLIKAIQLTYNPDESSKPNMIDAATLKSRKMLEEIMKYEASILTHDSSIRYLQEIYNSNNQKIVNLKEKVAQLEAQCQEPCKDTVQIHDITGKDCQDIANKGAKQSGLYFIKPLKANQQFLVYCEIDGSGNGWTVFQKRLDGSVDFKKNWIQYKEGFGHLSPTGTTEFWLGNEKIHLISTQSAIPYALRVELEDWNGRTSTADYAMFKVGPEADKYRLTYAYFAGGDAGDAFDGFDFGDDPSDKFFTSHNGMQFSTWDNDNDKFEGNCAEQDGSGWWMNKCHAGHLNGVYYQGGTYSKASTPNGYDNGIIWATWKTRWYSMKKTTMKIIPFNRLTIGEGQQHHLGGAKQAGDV

[8] = biological target: Human serum albumin (human) (UniProt P02768); assay: as above
Collagen type I [9] = assay: as above
Pepsin [10] = assay: as above
IgA [11] = assay: as above
Vitronectin [12] = assay: as above
Lactoferrin [13] = assay: as above
Transferrin [14] = assay: as above
Fibronectin [15] = assay: phage panning on coated protein in microtiter wells; last wash
Elastin [16] = assay: as above
α2macroglobulin [17] = assay: as above
human IgG [18] = assay: as above
[19] = biological target: Bovine serum albumin (fraction V, ria grade) (bovine) (UniProt P02769); assay: as above
Human fibrinogen (human) [20] = biological target: Human fibrinogen (human) (UniProt P02671); assay: as above
[21] = biological target: Human serum albumin (human) (UniProt P02768); assay: as above
Collagen type I [22] = assay: as above
Pepsin [23] = assay: as above
IgA [24] = assay: as above
Vitronectin [25] = assay: as above
Lactoferrin [26] = assay: as above
Transferrin [27] = assay: as above

Chain of UniProt O70022 (O70022 75-656): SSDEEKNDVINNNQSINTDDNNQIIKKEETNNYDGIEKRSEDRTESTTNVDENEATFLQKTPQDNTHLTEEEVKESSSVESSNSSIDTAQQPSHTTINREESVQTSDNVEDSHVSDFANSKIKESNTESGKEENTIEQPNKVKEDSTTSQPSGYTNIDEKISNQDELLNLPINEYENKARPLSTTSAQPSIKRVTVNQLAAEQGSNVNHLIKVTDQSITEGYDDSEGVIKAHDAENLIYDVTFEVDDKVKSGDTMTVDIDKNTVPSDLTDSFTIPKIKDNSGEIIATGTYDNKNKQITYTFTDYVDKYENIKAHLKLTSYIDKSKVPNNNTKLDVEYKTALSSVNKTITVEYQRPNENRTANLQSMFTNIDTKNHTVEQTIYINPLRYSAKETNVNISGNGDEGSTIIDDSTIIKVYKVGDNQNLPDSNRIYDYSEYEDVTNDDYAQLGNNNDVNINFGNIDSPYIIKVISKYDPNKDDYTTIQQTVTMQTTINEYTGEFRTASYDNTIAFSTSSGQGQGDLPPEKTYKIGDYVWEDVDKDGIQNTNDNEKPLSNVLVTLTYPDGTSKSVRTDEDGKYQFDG

**Q.** Which results are given for “Bovine serum albumin (fraction V, ria grade) (from UniProt P02769 25-607)”?
**A.** eluted phage titre at 0 µg/ml soluble ligand [1]: 76000 cfu/ml; eluted phage titre at 0.1 µg/ml soluble ligand [1]: 70000 cfu/ml; eluted phage titre at 1 µg/ml soluble ligand [1]: 93000 cfu/ml; eluted phage titre at 10 µg/ml soluble ligand [1]: 63000 cfu/ml; eluted phage titre at 100 µg/ml soluble ligand [1]: 64000 cfu/ml; eluted phage titre at 1000 µg/ml soluble ligand [1]: 69000 cfu/ml

**Q.** For “Human fibrinogen (from UniProt P02671 20-644; P02675 31-491; P02679 27-437)”, which eluted phage titre at 0 µg/ml soluble ligand [1] is on record?
**A.** Its eluted phage titre at 0 µg/ml soluble ligand is 76000 cfu/ml.

**Q.** What about the eluted phage titre at 0.1 µg/ml soluble ligand [1] of the same substance?
**A.** Its eluted phage titre at 0.1 µg/ml soluble ligand is 44000 cfu/ml.

**Q.** What about the eluted phage titre at 1 µg/ml soluble ligand [1] of the same substance?
**A.** The eluted phage titre at 1 µg/ml soluble ligand was 36000 cfu/ml.

**Q.** And the eluted phage titre at 10 µg/ml soluble ligand [1]?
**A.** The eluted phage titre at 10 µg/ml soluble ligand was 15000 cfu/ml.

**Q.** And the eluted phage titre at 100 µg/ml soluble ligand [1]?
**A.** The eluted phage titre at 100 µg/ml soluble ligand was 3800 cfu/ml.

**Q.** What about the eluted phage titre at 1000 µg/ml soluble ligand [1] of the same substance?
**A.** Its eluted phage titre at 1000 µg/ml soluble ligand is 300 cfu/ml.

**Q.** How did the phage titre in Eluate pH 1.8 (Fibronectin [2]) turn out when “fibrinogen binding protein encoded from pSE100 (581 aa part of protein FIG of Staphylococcus epidermidis strain HB) (from UniProt O70022 75-656)” was run?
**A.** Its phage titre in Eluate pH 1.8 is 24000 cfu/ml.

**Q.** And the phage titre in Eluate pH 1.8 (Elastin [3])?
**A.** The phage titre in Eluate pH 1.8 was 5200 cfu/ml.

**Q.** And the phage titre in Eluate pH 1.8 (α2macroglobulin [4])?
**A.** Its phage titre in Eluate pH 1.8 is 2000 cfu/ml.

**Q.** And the phage titre in Eluate pH 1.8 (human IgG [5])?
**A.** The phage titre in Eluate pH 1.8 was 4400 cfu/ml.

**Q.** And the phage titre in Eluate pH 1.8 [6]?
**A.** The phage titre in Eluate pH 1.8 was 800 cfu/ml.

**Q.** What about the phage titre in Eluate pH 1.8 (Human fibrinogen (human) [7]) of the same substance?
**A.** Its phage titre in Eluate pH 1.8 is 1.4e+07 cfu/ml.

**Q.** What about the phage titre in Eluate pH 1.8 [8] of the same substance?
**A.** Its phage titre in Eluate pH 1.8 is 2200 cfu/ml.

**Q.** And the phage titre in Eluate pH 1.8 (Collagen type I [9])?
**A.** Its phage titre in Eluate pH 1.8 is 1200 cfu/ml.

**Q.** And the phage titre in Eluate pH 1.8 (Pepsin [10])?
**A.** Its phage titre in Eluate pH 1.8 is 37000 cfu/ml.

**Q.** And the phage titre in Eluate pH 1.8 (IgA [11])?
**A.** The phage titre in Eluate pH 1.8 was 68000 cfu/ml.

**Q.** What about the phage titre in Eluate pH 1.8 (Vitronectin [12]) of the same substance?
**A.** The phage titre in Eluate pH 1.8 was 2200 cfu/ml.

**Q.** What about the phage titre in Eluate pH 1.8 (Lactoferrin [13]) of the same substance?
**A.** The phage titre in Eluate pH 1.8 was 8200 cfu/ml.

**Q.** And the phage titre in Eluate pH 1.8 (Transferrin [14])?
**A.** The phage titre in Eluate pH 1.8 was 2400 cfu/ml.

**Q.** And the phage titre in the last wash (Fibronectin [15])?
**A.** Its phage titre in the last wash is 600 cfu/ml.

**Q.** What about the phage titre in the last wash (Elastin [16]) of the same substance?
**A.** Its phage titre in the last wash is 800 cfu/ml.

**Q.** What about the phage titre in the last wash (α2macroglobulin [17]) of the same substance?
**A.** The phage titre in the last wash was 200 cfu/ml.

**Q.** What about the phage titre in the last wash (human IgG [18]) of the same substance?
**A.** Its phage titre in the last wash is 400 cfu/ml.

**Q.** What about the phage titre in the last wash [19] of the same substance?
**A.** The phage titre in the last wash was < 100 cfu/ml.

**Q.** What about the phage titre in the last wash (Human fibrinogen (human) [20]) of the same substance?
**A.** Its phage titre in the last wash is 11000 cfu/ml.

**Q.** And the phage titre in the last wash [21]?
**A.** The phage titre in the last wash was 800 cfu/ml.

**Q.** What about the phage titre in the last wash (Collagen type I [22]) of the same substance?
**A.** Its phage titre in the last wash is 600 cfu/ml.

**Q.** What about the phage titre in the last wash (Pepsin [23]) of the same substance?
**A.** The phage titre in the last wash was 180 cfu/ml.

**Q.** What about the phage titre in the last wash (IgA [24]) of the same substance?
**A.** Its phage titre in the last wash is 600 cfu/ml.

**Q.** And the phage titre in the last wash (Vitronectin [25])?
**A.** Its phage titre in the last wash is < 100 cfu/ml.

**Q.** What about the phage titre in the last wash (Lactoferrin [26]) of the same substance?
**A.** The phage titre in the last wash was 600 cfu/ml.

**Q.** And the phage titre in the last wash (Transferrin [27])?
**A.** Its phage titre in the last wash is 200 cfu/ml.

**Q.** How did the eluted phage titre at 0 µg/ml soluble ligand [1] turn out when human IgG (antibody) was run?
**A.** The eluted phage titre at 0 µg/ml soluble ligand was 76000 cfu/ml.

**Q.** What about the eluted phage titre at 0.1 µg/ml soluble ligand [1] of the same substance?
**A.** Its eluted phage titre at 0.1 µg/ml soluble ligand is 62000 cfu/ml.

**Q.** What about the eluted phage titre at 1 µg/ml soluble ligand [1] of the same substance?
**A.** The eluted phage titre at 1 µg/ml soluble ligand was 90000 cfu/ml.

**Q.** And the eluted phage titre at 10 µg/ml soluble ligand [1]?
**A.** Its eluted phage titre at 10 µg/ml soluble ligand is 78000 cfu/ml.

**Q.** What about the eluted phage titre at 100 µg/ml soluble ligand [1] of the same substance?
**A.** Its eluted phage titre at 100 µg/ml soluble ligand is 73000 cfu/ml.

**Q.** What about the eluted phage titre at 1000 µg/ml soluble ligand [1] of the same substance?
**A.** The eluted phage titre at 1000 µg/ml soluble ligand was 76000 cfu/ml.
